From the supplement of paper PMC9170038

Tested on: MS2 coat protein
Assay: apparent KD of MS2 coat protein; designed switch direction (-1 OFF switch, 1 ON switch): -1; higher = weaker reporter binding
In short: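 The reported apparent KD is a per-design median over clusters, from curve fits of normalised cluster fluorescence. Protein titrations used SNAP-549-labelled MS2 coat protein, doubled from 0.7 or 1.5 nM to 3 µM, in Tris-HCl pH 7.5 buffer with KCl, MgCl2, BSA, DTT, tRNA and Tween-20, with no input, 200 uM small-molecule ligand, or an oligonucleotide input. The RNA switches were transcribed on Illumina chips by stalled E. coli RNA polymerase.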

[1] = Eterna round: R95, input ligand: FMN 200 uM
[2] = Eterna round: R95, input ligand: microRNA oligo, concentration not stated
[3] = Eterna round: R95, input ligand: none
[4] = input ligand: microRNA oligo, concentration not stated

Row | Sequence | apparent KD of MS2 coat protein (input ligand: FMN 200 uM) | apparent KD of MS2 coat protein (input ligand: none) | apparent KD of MS2 coat protein [2] | also measured
1 | CUAGUAUAUCAGGAUAUGAUAGCUUAUAGCAUAUCAGAAGGGAUUACAUGAGGAUCACCCAUGUGAAGGGAUGA [eternacac ex6r4 sub17] (Eterna round: R97, puzzle: Exclusion 6) | 331 nM | 275 nM |  | 
2 | CUAGUCCGAGGAUAUAUUAAGUGAAACAUGAGGAUCACCCAUGUUAUUUAAUGGAAAUAAAUAGAAGGCGGACUAG [Mat - Exclusion 5 - JL mod - D56] (puzzle: Exclusion 5) |  |  | 34.6 nM | apparent KD of MS2 coat protein [1]: 27.2 nM; apparent KD of MS2 coat protein [3]: 51.6 nM
3 | CUAUUACGAGGAUAUGAUUUAAAUAACAUGAGGAUCACCCAUGUUUUUACGUUAUUUUAUUUAGAAGGCGUAUAGU [JR_E5_Sub029] (puzzle: Exclusion 5) |  |  | 42 nM | 
4 | CUAUUACGAGGAUAUGAUUUAAAUAACAUGAGGAUCACCCAUGUUUUUACGUUAUUUUGUUUAGAAGGCGUAUUGU [JR_E5_Sub027] (puzzle: Exclusion 5) |  |  | 55.5 nM | 
5 | CUCAAGUGAGGAUAUAUACUUCCAUCAUUUGAGAUAGAAGUAUAGAAGGCACAUGAGGAUCACCCAUGUAUAAC [Lamaanan] (puzzle: Exclusion 4) |  |  | 99.2 nM | 
6 | CUCAUGUGAGGAUAUGUGAUCAACCUUCUGUAUAGAUGAUUACAGAAGGCACAUGAGGAUCACCCAUGUAGAUC [Ex4 - 3 - 22] (puzzle: Exclusion 4) |  |  | 91.6 nM | 
7 | CUCCUACAUGAGGAUCACCCAUGUCAGGAUAUCUCAGUGGCACCUAAAUUCGCCACCCAGAGAAGGGACGUGCA [Erralaorge] (puzzle: Exclusion 1) |  |  | 13.4 nM | 
8 | CUCCUCAUGGCGCCUAAACACAUGAGGAUCACCCAUGUACAGGCUUUUCGCCGUCUUAUAAUAAAACCGAGGAUGCG [Soislebice] (puzzle: Sensor v3, turn-off variant 1) |  |  | 300 nM | apparent KD of MS2 coat protein [1]: 45.6 nM; apparent KD of MS2 coat protein [3]: 47.8 nM
9 | CUCCUCGUGGCGCCUAAACACAUGAGGAUCACCCAUGUACAGGCUUUUUGCCGUCUUAUAAUAAAACCGAGGAGGCG [Arce] (puzzle: Sensor v3, turn-off variant 1) |  |  | 22.1 nM | apparent KD of MS2 coat protein [1]: 13.7 nM; apparent KD of MS2 coat protein [3]: 15.9 nM
10 | CUCGAGUGAGGAUAUAUACUUCCAUCAUUUGAGAGAGAAGUAUAGAAGGCACAUGAGGAUCACCCAUGUAUAAA [Rierreis] (puzzle: Exclusion 4) |  |  | 41.3 nM | 
11 | CUCGUGCAGCUUUGCUGUACGAGUACAUGAGGAUCACCCAUGUAGGAUAUGGUACGCAAAGCGUGCCAGAAGGACGUGCGUUAG [Mat - Exclusion NG 3 - Mod of JL - D93] (Eterna round: R96, puzzle: Exclusion NG 3) | 78.7 nM | 33.1 nM |  | apparent KD of MS2 coat protein [4]: 29.9 nM
12 | CUCGUGCAGCUUUGCUGUACGAGUACAUGAGGAUCACCCAUGUAGGAUAUGGUACGCUUUGCGUGCCAGAAGGACGUGCGUUAG [JL EXNG3 1.41] (Eterna round: R96, puzzle: Exclusion NG 3) | 78.6 nM | 28.9 nM |  | apparent KD of MS2 coat protein [4]: 25.9 nM
13 | CUCGUGUGAGGAUAUCAACGUCAAGCGUGAGCGAGACGAGAUGAGAAGGUACAUGAGGAUCACCCAUGUGCUCA [Eternabot (Original) Solution 25] (Eterna round: R97, puzzle: Exclusion 4) | 83.1 nM | 20 nM |  | 
14 | CUCUGCACGCUGCGGUCCUACAUGAGGAUCACCCAUGUGGUCUGGUGGCGUGGGUCGCCGGACUUGGCUCGUCUUGG [salish99_S_TOV1_R5_047] (Eterna round: R97, puzzle: Sensor, turn-off variant 1) | 15.4 nM | 15.8 nM |  | 
15 | CUCUUGUUAGGAUAUCAAACCGGCGGCGGAGCCGCCGGUAGUGAGAAGGGACAUGAGGAUCACCCAUGUAAGAA [Isarcedi] (puzzle: Exclusion 4) |  |  | 65.2 nM | 
